Results taken from publication doi:10.1101/2024.03.15.585201 (bioRxiv, 2024).

Target: the molecule itself
Experiment: cryo-EM structure

B1: BmrA E504A mutant (natural protein)
chain: MPTKKQKSKSKLKPFFALVRRTNPSYGKLAFALALSVVTTLVSLLIPLLTKQLVDGFSMSNLSGTQIGLIALVFFVQAGLSAYATYALNYNGQKIISGLRELLWKKLIKLPVSYFDTNASGETVSRVTNDTMVVKELITTHISGFITGIISVIGSLTILFIMNWKLTLLVLVVVPLAALILVPIGRKMFSISRETQDETARFTGLLNQILPEIRLVKASNAEDVEYGRGKMGISSLFKLGVREAKVQSLVGPLISLVLMAALVAVIGYGGMQVSSGELTAGALVAFILYLFQIIMPMGQITTFFTQLQKSIGATERMIEILAEEEEDTVTGKQIENAHLPIQLDRVSFGYKPDQLILKEVSAVIEAGKVTAIVGPSGGGKTTLFKLLERFYSPTAGTIRLGDEPVDTYSLESWREHIGYVSQESPLMSGTIRENICYGLERDVTDAEIEKAAEMAYALNFIKELPNQFDTEVGERGIMLSGGQRQRIAIARALLRNPSILMLDAATSSLDSQSEKSVQQALEVLMEGRTTIVIAHRLSTVVDADQLLFVEKGEITGRGTHHELMASHGLYRDFAEQQLKMNADLENKAG
  stoichiometry N: 2
